Results published in US20260265329A1, “POLYPEPTIDE AND DERIVATIVE THEREOF, COMPOSITION, AND USE THEREOF” (HANGZHOU SCIWIND BIOSCIENCES CO., LTD., priority 2023, published 2026).
Starred links: 1 amine or outer side, 2 acyl side, 3 side chain; linkers in the order of their positions; H or OH if unused. Non-standard residues stand in square brackets, D forms with d. Residues, ends and D or L forms follow the SMILES beside them. Primed or numbered codes have the meaning given here. *: point of attachment. C20 diacid = O=C(O)CCCCCCCCCCCCCCCCCCC(=O)*; C18 diacid = O=C(O)CCCCCCCCCCCCCCCCC(=O)*; C16 diacid = O=C(O)CCCCCCCCCCCCCCC(=O)*; γGlu = O=C(O)[C@H](CCC(=O)[*:2])N[*:1]; Hyp = O=C(O)[C@@H]1C[C@@H](O)CN1; NMeN = CN[C@@H](CC(N)=O)C(=O)O; Inp′ = not defined here; Trx′ = not defined here; AEEA = NCCOCCOCC(=O)O

T1: human amylin receptors (Homo sapiens, UniProt O60896+P30988)
T1 construct: host or cells: CHO-K1/Ga15/AMY3 cells, further stably transfected with a CRE-luciferase plasmid
T1 sequence (P30988 25-474): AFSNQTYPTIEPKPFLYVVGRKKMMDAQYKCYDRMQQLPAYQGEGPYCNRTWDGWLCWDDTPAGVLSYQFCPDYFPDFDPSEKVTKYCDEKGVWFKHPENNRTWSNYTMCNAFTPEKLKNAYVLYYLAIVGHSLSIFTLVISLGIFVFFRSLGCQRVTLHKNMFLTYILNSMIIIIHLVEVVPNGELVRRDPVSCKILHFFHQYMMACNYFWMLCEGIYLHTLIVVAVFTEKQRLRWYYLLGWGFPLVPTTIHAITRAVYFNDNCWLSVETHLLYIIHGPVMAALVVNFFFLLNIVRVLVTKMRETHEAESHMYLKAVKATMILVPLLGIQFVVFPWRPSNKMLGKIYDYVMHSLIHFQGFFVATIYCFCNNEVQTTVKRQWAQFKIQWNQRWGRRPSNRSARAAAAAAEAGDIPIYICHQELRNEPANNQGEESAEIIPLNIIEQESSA
T1 sequence (O60896 24-148 partner): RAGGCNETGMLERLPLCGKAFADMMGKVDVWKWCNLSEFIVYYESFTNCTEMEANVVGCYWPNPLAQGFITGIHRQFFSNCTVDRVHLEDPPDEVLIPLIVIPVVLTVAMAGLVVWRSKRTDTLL

T2: human amylin receptor on CHO-K1/Ga15/AMY3 cells (amylin receptor/CRE-luc cell line) (human) (UniProt P30988)
T2 sequence (looked up) 1: T1 sequence (P30988 25-474)
T2 sequence (looked up) 2: T1 sequence (O60896 24-148 partner)

B1: M34 (peptide)
peptide: {C20 diacid}-D[AEEA][AEEA]ASQLSTAATQRLADFLRHSSNNLKPILPPTNVGSNT[Hyp]-NH2
SMILES: CC[C@H](C)[C@H](NC(=O)[C@@H]1CCCN1C(=O)[C@H](CCCCN)NC(=O)[C@H](CC(C)C)NC(=O)[C@H](CC(N)=O)NC(=O)[C@H](CC(N)=O)NC(=O)[C@H](CO)NC(=O)[C@H](CO)NC(=O)[C@H](Cc1c[nH]cn1)NC(=O)[C@H](CCCNC(=N)N)NC(=O)[C@H](CC(C)C)NC(=O)[C@H](Cc1ccccc1)NC(=O)[C@H](CC(=O)O)NC(=O)[C@H](C)NC(=O)[C@H](CC(C)C)NC(=O)[C@H](CCCNC(=N)N)NC(=O)[C@H](CCC(N)=O)NC(=O)[C@@H](NC(=O)[C@H](C)NC(=O)[C@H](C)NC(=O)[C@@H](NC(=O)[C@H](CO)NC(=O)[C@H](CC(C)C)NC(=O)[C@H](CCC(N)=O)NC(=O)[C@H](CO)NC(=O)[C@H](C)NC(=O)COCCOCCNC(=O)COCCOCCNC(=O)[C@H](CC(=O)O)NC(=O)CCCCCCCCCCCCCCCCCCC(=O)O)[C@@H](C)O)[C@@H](C)O)C(=O)N[C@@H](CC(C)C)C(=O)N1CCC[C@H]1C(=O)N1CCC[C@H]1C(=O)N[C@H](C(=O)N[C@@H](CC(N)=O)C(=O)N[C@H](C(=O)NCC(=O)N[C@@H](CO)C(=O)N[C@@H](CC(N)=O)C(=O)N[C@H](C(=O)N1C[C@H](O)C[C@H]1C(N)=O)[C@@H](C)O)C(C)C)[C@@H](C)O
B2: M37 (peptide)
peptide: {C18 diacid-γGlu}-ASQLSTAATQRLADFLRHSSNNLKPILPPTNVGSNT[Hyp]-NH2
SMILES: CC[C@H](C)[C@H](NC(=O)[C@@H]1CCCN1C(=O)[C@H](CCCCN)NC(=O)[C@H](CC(C)C)NC(=O)[C@H](CC(N)=O)NC(=O)[C@H](CC(N)=O)NC(=O)[C@H](CO)NC(=O)[C@H](CO)NC(=O)[C@H](Cc1c[nH]cn1)NC(=O)[C@H](CCCNC(=N)N)NC(=O)[C@H](CC(C)C)NC(=O)[C@H](Cc1ccccc1)NC(=O)[C@H](CC(=O)O)NC(=O)[C@H](C)NC(=O)[C@H](CC(C)C)NC(=O)[C@H](CCCNC(=N)N)NC(=O)[C@H](CCC(N)=O)NC(=O)[C@@H](NC(=O)[C@H](C)NC(=O)[C@H](C)NC(=O)[C@@H](NC(=O)[C@H](CO)NC(=O)[C@H](CC(C)C)NC(=O)[C@H](CCC(N)=O)NC(=O)[C@H](CO)NC(=O)[C@H](C)NC(=O)CC[C@H](NC(=O)CCCCCCCCCCCCCCCCC(=O)O)C(=O)O)[C@@H](C)O)[C@@H](C)O)C(=O)N[C@@H](CC(C)C)C(=O)N1CCC[C@H]1C(=O)N1CCC[C@H]1C(=O)N[C@H](C(=O)N[C@@H](CC(N)=O)C(=O)N[C@H](C(=O)NCC(=O)N[C@@H](CO)C(=O)N[C@@H](CC(N)=O)C(=O)N[C@H](C(=O)N1C[C@H](O)C[C@H]1C(N)=O)[C@@H](C)O)C(C)C)[C@@H](C)O
B3: M38 (peptide)
peptide: {C16 diacid-γGlu}-ASQLSTAATQRLADFLRHSSNNLKPILPPTNVGSNT[Hyp]-NH2
SMILES: CC[C@H](C)[C@H](NC(=O)[C@@H]1CCCN1C(=O)[C@H](CCCCN)NC(=O)[C@H](CC(C)C)NC(=O)[C@H](CC(N)=O)NC(=O)[C@H](CC(N)=O)NC(=O)[C@H](CO)NC(=O)[C@H](CO)NC(=O)[C@H](Cc1c[nH]cn1)NC(=O)[C@H](CCCNC(=N)N)NC(=O)[C@H](CC(C)C)NC(=O)[C@H](Cc1ccccc1)NC(=O)[C@H](CC(=O)O)NC(=O)[C@H](C)NC(=O)[C@H](CC(C)C)NC(=O)[C@H](CCCNC(=N)N)NC(=O)[C@H](CCC(N)=O)NC(=O)[C@@H](NC(=O)[C@H](C)NC(=O)[C@H](C)NC(=O)[C@@H](NC(=O)[C@H](CO)NC(=O)[C@H](CC(C)C)NC(=O)[C@H](CCC(N)=O)NC(=O)[C@H](CO)NC(=O)[C@H](C)NC(=O)CC[C@H](NC(=O)CCCCCCCCCCCCCCC(=O)O)C(=O)O)[C@@H](C)O)[C@@H](C)O)C(=O)N[C@@H](CC(C)C)C(=O)N1CCC[C@H]1C(=O)N1CCC[C@H]1C(=O)N[C@H](C(=O)N[C@@H](CC(N)=O)C(=O)N[C@H](C(=O)NCC(=O)N[C@@H](CO)C(=O)N[C@@H](CC(N)=O)C(=O)N[C@H](C(=O)N1C[C@H](O)C[C@H]1C(N)=O)[C@@H](C)O)C(C)C)[C@@H](C)O

Key:
human amylin receptors = molecular target: T1, human amylin receptors; assay: Luciferase assay in stably transfected amylin receptor/CRE-luc CHO cell line; type: cell-based; details: for Relative activity: EC50 ratio of Cagrilintide to the compound, Cagrilintide 100%; for EC50: amylin receptor/CRE-luc CHO cells, 24 hours incubation, luminescence
[1] = Heat accelerated stability assay, 40° C., detection on 10 d and 20 d; type: physicochemical; details: 1 mg/mL, pH about 7.4, 40° C.
Experimental: The derivatives (1 mg/mL) were mixed with sodium dihydrogen phosphate (1.42 mg/mL) and dissolved in ultrapure water. After adjusting pH to about 7.4 with hydrochloric acid/sodium hydroxide, the solution was filtered into a sterilized vial in a clean bench using a 0.22 μm sterile filter. The vial was then capped and placed into the stability test chamber at 40° C. Detections were made on 10d and 20d, and during the assay changes in the characteristics and properties of the polypeptides were observed and recorded. The sample was then centrifuged for 3 min at 10000 rpm at 4° C., and the supernatant was transferred to a liquid phase sample vial for detecting the concentration and purity of the polypeptides using liquid phase chromatography described as below.
Flow rate: 1.0 mL/min; Autosampler temperature: 25° C.; Column temperature: 25° C.; Detection wavelength: 214 nm; Mobile phase A: 110 mM phosphate buffer (pH 5.8): ACN=90:10; Mobile phase B: ACN: IPA: H2O=85:5:10; and Gradient of elution listed in Table 6: […]

[2] = molecular target: T2, human amylin receptor on CHO-K1/Ga15/AMY3 cells (amylin receptor/CRE-luc cell line) (human); assay: cell-based or functional assay

| Molecule | Relative activity (human amylin receptors) | EC50 (human amylin receptors) | Reduction in purity, 10 d [1] | Reduction in purity, 20 d ([1]; 20 d) | EC50 (luciferase assay, amylin receptor/CRE-luc CHO cells) [2] | Relative activity (the EC50 ratio of Cagrilintide to the compound) [2] |
| --- | --- | --- | --- | --- | --- | --- |
| CC[C@H](C)[C@H](NC(=O)[C@@H]1CCCN1C(=O)[C@H](CCCCN)NC(=O)[C@H](CC(C)C)NC(=O)[C@H](CCC(=O)O)NC(=O)[C@H](CCC(=O)O)NC(=O)[C@H](CO)NC(=O)[C@H](CO)NC(=O)[C@H](Cc1c[nH]cn1)NC(=O)[C@H](CCCNC(=N)N)NC(=O)[C@H](CC(C)C)NC(=O)[C@H](Cc1ccccc1)NC(=O)[C@H](CC(=O)O)NC(=O)[C@H](C)NC(=O)[C@H](CC(C)C)NC(=O)[C@H](CCCNC(=N)N)NC(=O)[C@H](CCC(N)=O)NC(=O)[C@@H](NC(=O)[C@H](C)NC(=O)[C@H](C)NC(=O)[C@@H](NC(=O)[C@H](CO)NC(=O)[C@H](CC(C)C)NC(=O)[C@H](CCC(N)=O)NC(=O)[C@H](CO)NC(=O)[C@H](C)NC(=O)CC[C@H](NC(=O)CCCCCCCCCCCCCCCCCCC(=O)O)C(=O)O)[C@@H](C)O)[C@@H](C)O)C(=O)N[C@@H](CC(C)C)C(=O)N1CCC[C@H]1C(=O)N1CCC[C@H]1C(=O)N[C@H](C(=O)N[C@@H](CC(N)=O)C(=O)N[C@H](C(=O)NCC(=O)N[C@@H](CO)C(=O)N[C@@H](CC(N)=O)C(=O)N[C@H](C(=O)N1C[C@H](O)C[C@H]1C(N)=O)[C@@H](C)O)C(C)C)[C@@H](C)O [M42] ({C20 diacid-γGlu}-ASQLSTAATQRLADFLRHSSEELKPILPPTNVGSNT[Hyp]-NH2) | 32% | 0.28 nM | 4.8% |  |  |  |
| CC[C@H](C)[C@H](NC(=O)[C@@H]1CCCN1C(=O)[C@H](CCCCN)NC(=O)[C@H](CC(C)C)NC(=O)[C@H](CC(N)=O)N(C)C(=O)[C@H](CC(N)=O)NC(=O)[C@H](CO)NC(=O)[C@H](CO)NC(=O)[C@H](Cc1c[nH]cn1)NC(=O)[C@H](CCCNC(=N)N)NC(=O)[C@H](CC(C)C)NC(=O)[C@H](Cc1ccccc1)NC(=O)[C@H](CC(=O)O)NC(=O)[C@H](C)NC(=O)[C@H](CC(C)C)NC(=O)[C@H](CCCNC(=N)N)NC(=O)[C@H](CCC(N)=O)NC(=O)[C@@H](NC(=O)[C@H](C)NC(=O)[C@H](C)NC(=O)[C@@H](NC(=O)[C@H](CO)NC(=O)[C@H](CC(C)C)NC(=O)[C@H](CCC(N)=O)NC(=O)[C@H](CO)NC(=O)[C@H](C)NC(=O)CC[C@H](NC(=O)CCCCCCCCCCCCCCCCCCC(=O)O)C(=O)O)[C@@H](C)O)[C@@H](C)O)C(=O)N[C@@H](CC(C)C)C(=O)N1CCC[C@H]1C(=O)N1CCC[C@H]1C(=O)N[C@H](C(=O)N[C@@H](CC(N)=O)C(=O)N[C@H](C(=O)NCC(=O)N[C@@H](CO)C(=O)N[C@@H](CC(N)=O)C(=O)N[C@H](C(=O)N1C[C@H](O)C[C@H]1C(N)=O)[C@@H](C)O)C(C)C)[C@@H](C)O [M44] ({C20 diacid-γGlu}-ASQLSTAATQRLADFLRHSSN[NMeN]LKPILPPTNVGSNT[Hyp]-NH2) | 130% | 0.1 nM | 21.09% | 37.35% |  |  |
| B1 |  |  |  |  | 0.132 nM | 40% |
| {C20 diacid-Trx′-AEEA-AEEA}-ASQLSTAATQRLADFLRHSSNNLKPILPPTNVGSNT[Hyp]-NH2 (reading uncertain) [M35] |  |  |  |  | 0.043 nM | 124% |
| {C20 diacid-Inp′-AEEA-AEEA}-ASQLSTAATQRLADFLRHSSNNLKPILPPTNVGSNT[Hyp]-NH2 [M36] |  |  |  |  | 0.059 nM | 91% |
| B2 |  |  |  |  | 0.03 nM | 184% |
| B3 |  |  |  |  | 0.03 nM | 181% |
